Reference: article PMC7407445, “Role of RadA and DNA Polymerases in Recombination-Associated DNA Synthesis in Hyperthermophilic Archaea”

Target: RadA recombinase (Pyrococcus abyssi, UniProt Q9V233 1-353)
Experiment: EMSA; no ATP; 25 nM ssDNA, RadA 0-6.4 uM; 20 mM Tris-HCl pH 8.0, 50 ug/mL BSA, 2 mM DTT, 0.5% Triton, 65 C, 10 min; 0.75% native agarose gel
Details: protein: recombinant; tags: none (untagged); label: 5' HiLyte Fluor 647; single strand

Sequence of RadA recombinase (Q9V233 whole entry): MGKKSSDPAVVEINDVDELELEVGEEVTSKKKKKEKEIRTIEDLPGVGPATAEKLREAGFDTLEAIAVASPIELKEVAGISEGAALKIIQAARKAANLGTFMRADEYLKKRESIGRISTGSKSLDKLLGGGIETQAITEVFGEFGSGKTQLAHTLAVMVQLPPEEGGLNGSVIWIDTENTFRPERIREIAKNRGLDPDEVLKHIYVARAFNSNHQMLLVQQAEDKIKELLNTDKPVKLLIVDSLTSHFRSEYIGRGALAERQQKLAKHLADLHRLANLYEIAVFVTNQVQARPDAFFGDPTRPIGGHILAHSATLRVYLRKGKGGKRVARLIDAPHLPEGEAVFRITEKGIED

B1: L93-5'HL 647 (93-mer ssDNA) (ssDNA)
DNA: AAAGGCGGTAATACGGTTATCCACAGAATCAGGGGATAACGCAGGAAAGAACATGTGAGCAAAAGGCCAGCAAAAGGCCAGGAACCGTAAAAA
binding result: binds
